Measured values published in publication PMC6469936.

Biological target: Kuenenia stuttgartiensis hydrazine dehydrogenase (Kuenenia stuttgartiensis) (UniProt Q1PW30)
Assay: crystal structure

Chain of UniProt Q1PW30 (Q1PW30 33-582): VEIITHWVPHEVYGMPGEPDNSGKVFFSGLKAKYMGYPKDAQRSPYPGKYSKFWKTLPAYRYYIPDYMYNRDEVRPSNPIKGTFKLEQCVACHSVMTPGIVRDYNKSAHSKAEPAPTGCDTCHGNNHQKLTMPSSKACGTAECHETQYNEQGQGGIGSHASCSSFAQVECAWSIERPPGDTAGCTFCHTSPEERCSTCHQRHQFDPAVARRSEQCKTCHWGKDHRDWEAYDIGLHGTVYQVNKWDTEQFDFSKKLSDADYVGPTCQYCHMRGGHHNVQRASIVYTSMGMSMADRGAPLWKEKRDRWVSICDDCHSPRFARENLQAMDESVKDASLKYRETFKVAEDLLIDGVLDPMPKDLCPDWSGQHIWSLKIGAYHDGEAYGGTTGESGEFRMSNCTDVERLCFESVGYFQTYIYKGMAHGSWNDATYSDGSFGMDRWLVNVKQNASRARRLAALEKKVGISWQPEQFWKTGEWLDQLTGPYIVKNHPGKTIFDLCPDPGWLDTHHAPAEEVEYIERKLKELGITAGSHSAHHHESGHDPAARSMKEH

Kustc1130, endogenous, co-purified with K. stuttgartiensis HDH (from UniProt Q1PW30 33-582) (natural protein)
stoichiometry N (copies per assembly of 24 HDH monomers): 12
